Experimental findings from the supplement of paper PMC12764529 are described below.

± gives the half width of the 95% confidence interval. A value given as a limit tells only on which side of the number the result lay.

Series [1] in a line: folding stability dG unfold from chymotrypsin proteolysis; higher = more stable. An outline of the steps: (§1)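 Designed mini-proteins with no cysteine and under 80 residues were kept only if AlphaFold2 dimer inter-PAE was above 15. In a PA-tagged cDNA display construct, they were digested with trypsin and chymotrypsin and then sequenced. K50 was inferred by Bayesian fitting of counts, and unfolding free energy was derived per protease or combined against a sequence-predicted unfolded-state K50 and a shared folded-state K50.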

Series [2] is described as follows: folding stability dG unfold (combined trypsin and chymotrypsin); higher = more stable. The method, boiled down:
as §1

Series [3] in a line: folding stability dG unfold from trypsin proteolysis; higher = more stable. An outline of the steps:
as §1

As to “SAETVVNVTISRPPPSKYSVTITIQPPTSSTSLPTTTDLPPGAYEELLAALQKAHPNLTFSTVTETSDGSAG [r14_969_JUSTAS]”, the “folding stability dG unfold” value in series [1] worked out at 0.758 ± 0.15 kcal/mol; in series [2], 0.828 ± 0.12 kcal/mol; in series [3], 0.614 ± 0.03 kcal/mol.

For the sequence “SAEVEVELVEVNGKLFLVMKVKEKDENGKEREYLVVVEVEFDPETKKLTVKVYVFPSKEEAEEALKKLLSAG [r14_500_TrROS_Hall]”, the “folding stability dG unfold” value in series [1] was 5.26 ± 0.45 kcal/mol; in series [2], over 6 kcal/mol; in series [3], 3.92 ± 0.52 kcal/mol.

Regarding “SAEVRARLEYDPVSGDLVLEVERPLPNGDVIRARVDLVNPVLRVEHLPVRDGVPLPRETELDLPADALVSAG [r14_64_TrMRF]”, the “folding stability dG unfold” value in series [1] was determined as 0.855 ± 0.039 kcal/mol; in series [2], 0.766 ± 0.067 kcal/mol; in series [3], 0.394 ± 0.084 kcal/mol.

With “SAEVTSTFDPSTGILTVTVKLEDPETGKPIPAEEVAAEVEKEYPNSTILSIEPDPEGYVTITVKVPPELVSA [r9_87_JUSTAS]”, the “folding stability dG unfold” value worked out at 3.16 ± 0.049 kcal/mol in series [1], 2.79 ± 0.039 kcal/mol in series [2] and 1.81 ± 0.075 kcal/mol in series [3].

Consider “SAFKIDPNGHIRIMISQDDLKQMSIEEINNLVKELAKAFPPPMKVEIHIMPPPPKPKPPPKRDDDGKPKSAG [r14_312_TrROS]”, for which the “folding stability dG unfold” value is 0.66 ± 0.13 kcal/mol in series [1], 1.1 ± 0.18 kcal/mol in series [2] and 1.54 ± 0.053 kcal/mol in series [3].

Consider “SAFKILPDGTILIDIGEDEAKKLSIEEIEALVKEIEKLLPKDYKVEIHIIPKKPIPKPPLIPGKDNLIGSAG [r14_312_TrMRF]”, for which the “folding stability dG unfold” value in series [1] was determined as 1.97 ± 0.041 kcal/mol; in series [2], 1.91 ± 0.071 kcal/mol; in series [3], 1.94 ± 0.063 kcal/mol.

With “SAFRDLAKEIARDAGYPVELVEIEFTNDTWTFMIQMKNDGEPYYFRIEIEWPNPNPGDWRIEIDDVQPPSAG [r14_387_TrROS]”, the “folding stability dG unfold” value is 3.09 ± 0.094 kcal/mol in series [1], 2.78 ± 0.28 kcal/mol in series [2] and 1.94 ± 0.14 kcal/mol in series [3].

Turning to “SAGAAPVGARLVKVEPLPGDGPFVLVEVTPPDGKPGFILVPWEFFESGYLKNATAADIAKRFPFAKPASAGG [r19_74_TrMRF]”, the “folding stability dG unfold” value was found to be 1.85 ± 0.028 kcal/mol in series [1], 1.49 ± 0.056 kcal/mol in series [2] and 0.513 ± 0.019 kcal/mol in series [3].

As for “SAGAATINPNPLTLEIESPDGTKYTVSPEEVQKIKDELEAKGKPPTLEEILNEIKKRFPNWRVSYSPESAGG [r19_46_JUSTAS]”, the “folding stability dG unfold” value turned out to be 3.59 ± 0.04 kcal/mol in series [1], 3.44 ± 0.058 kcal/mol in series [2] and 3.06 ± 0.076 kcal/mol in series [3].

Regarding “SAGADSVTYDPETNLVVVYRRVGDDVEVLVLEPVPLPVVVVVPVEDAVTRNPELRPLLEQNPDFYLVFPSAG [r5_957_TrMRF]”, the “folding stability dG unfold” value in series [1] came to 2.248 ± 0.022 kcal/mol; in series [2], 2.13 ± 0.051 kcal/mol; in series [3] it was 1.88 ± 0.036 kcal/mol.

As to “SAGAKIVSVEKVNGEKKITIKVKKEGDEIVIVFPKKNAKIEKKKNGTIEITIKEGETVIIVLKVKKKKSAGG [r19_227_TrROS_Hall]”, the figures for the “folding stability dG unfold” value in series [1], in series [2] and in series [3] were 3.29 ± 0.082 kcal/mol, 2.99 ± 0.22 kcal/mol and 1.82 ± 0.051 kcal/mol, respectively.

For “SAGALPPDQVVPIPVLVRLSEDDPELREAIERGEVVEFELPGPLRLLAEFEPLPEDLVLVTLYLEVPEGSAG [r5_223_TrMRF]”, the “folding stability dG unfold” value in series [1] was found to be 2.3 ± 0.062 kcal/mol; in series [2] it was 1.98 ± 0.17 kcal/mol; in series [3], 1.28 ± 0.052 kcal/mol.

For the sequence “SAGAMKITMPEDISVSPSGGATVTITVEFPDKDAVYTVPVTFPDVKSVEEVLARAEEVGKEFAEELKKKSAG [r5_940_JUSTAS]”, the “folding stability dG unfold” value in series [1] is 0.872 ± 0.063 kcal/mol; in series [2], 0.73 ± 0.099 kcal/mol; in series [3], 0.484 ± 0.046 kcal/mol.

“SAGAQPIKLKLVDPNGWEIDDIEIEYSPNGMYMIGIENPDNGRPMHIQYNPDDGKIEIRWPNGKLFEIESAG [r5_809_TrROS]”: the “folding stability dG unfold” value in series [1] was found to be 0.902 ± 0.13 kcal/mol; in series [2], 0.841 ± 0.12 kcal/mol; in series [3], 0.713 ± 0.041 kcal/mol.

On to “SAGASVSRPVSADEEFSVTVPPEPVTLEVTVYRPDGSVLSSRTIPVGPNTTVTLNVPDPDWSVSFSPVASAG [r5_797_JUSTAS]”, for which the results for the “folding stability dG unfold” value in series [1], in series [2] and in series [3] were 0.082 ± 0.18 kcal/mol, 0.232 ± 0.2 kcal/mol and -0.0205 ± 0.2 kcal/mol, respectively.

For the sequence “SAGATFKPGQTITVTVTVTVTVTNADGSTTTVTATVTVTLTVEPAPPLTFKTAEEAEAARKAGLSPEELSAG [r5_624_TrROS_Hall]”, the “folding stability dG unfold” value was found to be 1.9 ± 0.076 kcal/mol in series [1], 1.84 ± 0.23 kcal/mol in series [2] and 1.35 ± 0.07 kcal/mol in series [3].

With “SAGATLLEERELPDGSRVEVYREPDKLIVRVFSPDREVETRVFPLPPEPPLPVVPVVVDPARGRFVRLSAGG [r19_254_JUSTAS]”, the “folding stability dG unfold” value was -0.00636 ± 0.11 kcal/mol in series [1], -0.106 ± 0.077 kcal/mol in series [2] and -0.621 ± 0.19 kcal/mol in series [3].

Turning to “SAGDDWIPIEEIARRIARKHGYPVKSVEVPIYKTPDYYYVTVHIKYENPDDGKKQEFEDQFWIPKDEIKSAG [r5_421_TrROS]”, the entries for the “folding stability dG unfold” value in series [1], in series [2] and in series [3] were 0.97 ± 0.054 kcal/mol, 0.886 ± 0.17 kcal/mol and 0.968 ± 0.065 kcal/mol, respectively.
